Series [1] addresses Cre recombinase (Bacteriophage P1?) (UniProt P06956). The series can be described thus: cell_activity. The following applies: plasmids lacking lox; 5 plaques in 293 without Cre, homologous recombination background.
For series [2], the target named is Cre recombinase (UniProt P06956 P06956:1-343). Briefly: cell_activity; pCA36lox x pBHG10lox cotransfection; 168 plaques in 293Cre4 vs 4 in 293 (12 dishes each). Particulars: tags: stably expressed in 293Cre4 cells; chain copies: 4; BamHI/BglII overhangs. An excerpt:
The efficiency of Cre/lox mediated recombination was compared with that of homologous recombination, by measuring the numbers of virus plaques obtained from cotransfections of 293 cells versus the numbers obtained following cotransfections of 293Cre4 cells (see, for example, U.S. patent application Ser. No. 08/473,168, filed Jun. 7, 1995; see also WO96/40955, hereby incorporated by reference).
Coupled with the fact that the only infectious virus present in the transfected cell preparation are recombinants, rather than contaminating starting virus, the efficiency, cleanliness and convenience of this method in comparison to known methods represent significant advances in the art. Thus, with this new method it will be possible to reduce the amount of plasmid DNA used in cotransfections and reduce the number of dishes of 293 (293Cre) cells needed in cotransfections for rescue of viral vectors. It will also aid in the rescue of constructs which, for unknown reasons, might be otherwise difficult to rescue (e.g. rescue of vectors containing large foreign DNA inserts in E1 is often inefficient for reasons that are not known).

Here are results for two molecules from patent US6379943, “High-efficiency Cre/loxp based system for construction of adenovirus vectors” (Merck & Co., Inc.).

Chain of Cre recombinase (Bacteriophage P1?) (P06956 whole entry): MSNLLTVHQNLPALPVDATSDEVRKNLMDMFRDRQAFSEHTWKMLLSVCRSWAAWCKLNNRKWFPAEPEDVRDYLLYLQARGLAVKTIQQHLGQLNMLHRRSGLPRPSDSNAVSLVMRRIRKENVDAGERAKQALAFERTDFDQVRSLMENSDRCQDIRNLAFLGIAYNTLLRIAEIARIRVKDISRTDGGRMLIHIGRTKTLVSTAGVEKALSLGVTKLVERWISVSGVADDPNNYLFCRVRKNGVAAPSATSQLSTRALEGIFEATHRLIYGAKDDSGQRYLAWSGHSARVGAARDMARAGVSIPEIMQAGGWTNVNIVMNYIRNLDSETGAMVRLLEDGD
Chain of Cre recombinase (P06956 whole entry, one chain of several): as the sequence (P06956 whole entry) above

Take no-lox plasmid pair pCA36:pBHG10: the activity (plaques (12 dishes)) in series [1] came to 7.

B1: loxP linker AB3233/AB3234 (dsDNA)
DNA 1: GATCCAATAACTTCGTATAGCATACATTATACGAAGTTATAAGTACTGAATTCG
DNA 2: GATCCGAATTCAGTACTTATAACTTCGTATAATGTATGCTATACGAAGTTATTG
For B1, the activity in series [2] was 35 fold over homologous recombination.
